The test concerns the target T1, human C1s (active form) (human) (UniProt P09871).
T1 sequence 1: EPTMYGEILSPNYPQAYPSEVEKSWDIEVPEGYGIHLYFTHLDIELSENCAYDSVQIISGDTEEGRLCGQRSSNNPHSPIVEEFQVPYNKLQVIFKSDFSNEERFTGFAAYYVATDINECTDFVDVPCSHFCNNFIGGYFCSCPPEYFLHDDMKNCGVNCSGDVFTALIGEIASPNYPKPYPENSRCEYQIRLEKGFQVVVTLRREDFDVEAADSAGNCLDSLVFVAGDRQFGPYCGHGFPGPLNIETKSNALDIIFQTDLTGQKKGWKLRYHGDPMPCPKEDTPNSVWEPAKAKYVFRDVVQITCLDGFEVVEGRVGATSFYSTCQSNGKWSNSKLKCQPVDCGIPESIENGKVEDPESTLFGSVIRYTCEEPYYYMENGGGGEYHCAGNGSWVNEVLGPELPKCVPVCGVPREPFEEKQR
T1 sequence 2: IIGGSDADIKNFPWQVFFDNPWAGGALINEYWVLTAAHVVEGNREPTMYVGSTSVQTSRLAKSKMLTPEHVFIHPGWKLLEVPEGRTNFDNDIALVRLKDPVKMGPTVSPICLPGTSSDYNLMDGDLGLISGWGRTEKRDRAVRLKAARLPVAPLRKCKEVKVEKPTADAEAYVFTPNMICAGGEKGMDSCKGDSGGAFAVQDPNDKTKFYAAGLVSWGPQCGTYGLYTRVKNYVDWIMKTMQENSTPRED
Description: cell-based or functional assay.

B1: TNT009 (antibody, from another filing, V domains shown)
VH: EVQLVESGGGLVKPGGSLRLSCAASGFTFSNYAMSWVRQAPGKGLEWVATISSGGSHTYYLDSVKGRFTISRDNSKNTLYLQMNSLRAEDTALYYCARLFTGYAMDYWGQGTLVTVSS
VL: QIVLTQSPATLSLSPGERATMSCTASSSVSSSYLHWYQQKPGKAPKLWIYSTSNLASGVPSRFSGSGSGTDYTLTISSLQPEDFATYYCHQYYRLPPITFGQGTKLEIKR
Take B1: the IC50 of inhibition of C3b deposition on antibody-sensitized human RBCs (flow cytometry, 5% human serum) turned out to be 5 nM.

B2: TNT020 (antibody, from another filing, V domains shown)
VH: QVQLVQSGAEVKKPGASVKLSCTASGFNIKDDYIHWVKQAPGQGLEWIGRIDPADGHTKYAPKFQVKVTITADTSTSTAYLELSSLRSEDTAVYYCARYGYGREVFDYWGQGTTVTVSS
VL: DIVLTQSPDSLAVSLGERATISCKASQSVDYDGDSYMNWYQQKPGQPPKILIYDASNLESGIPARFSGSGSGTDFTLTISSLEPEDFAIYYCQQSNEDPWTFGGGTKVEIKR
Take B2: the IC50 of inhibition of C3b deposition on antibody-sensitized human RBCs (flow cytometry, 5% human serum) is 6.5 nM.
